Results from publication PMC9477392 (2022).

Molecular target: T1, Atox1 (Homo sapiens, UniProt O00244)
T1 chain: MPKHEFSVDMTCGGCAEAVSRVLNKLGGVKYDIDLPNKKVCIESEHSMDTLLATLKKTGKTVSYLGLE
Experiment: SPR

B1: Memo1 (protein)
chain: MSNRVVCREASHAGSWYTASGPQLNAQLEGWLSQVQSTKRPARAIIAPHAGYTYCGSCAAHAYKQVDPSITRRIFILGPSHHVPLSRCALSSVDIYRTPLYDLRIDQKIYGELWKTGMFERMSLQTDEDEHSIEMHLPYTAKAMESHKDEFTIIPVLVGALSESKEQEFGKLFSKYLADPSNLFVVSSDFCHWGQRFRYSYYDESQGEIYRSIEHLDKMGMSIIEQLDPVSFSNYLKKYHNTICGRHPIGVLLNAITELQKNGMNMSFSFLNYAQSSQCRNWQDSSVSYAAGALTVH
modifications: Cu(I)-loaded Atox1
  Kd: 210 nM
